Measured values from US20220298235A1 (AKESO BIOPHARMA, published 2022).
Positions count from the first letter of the chain named. Blank lines part the entries; values can stand above or below the binder they belong to.

Legend:
[1] = target: T1, human IL-23 (IL-23-His-Biotin) (human, UniProt Q9NPF7 20-189; P29460 23-328, biotin label, site not stated); assay: FACS competition, IL-23-His-Biotin 2 µg/mL on 293T-IL-12Rβ1&IL-23R cells
T1 construct: Akesobio lot 20161209; His-tagged and biotinylated
T1 sequence (looked up) 1: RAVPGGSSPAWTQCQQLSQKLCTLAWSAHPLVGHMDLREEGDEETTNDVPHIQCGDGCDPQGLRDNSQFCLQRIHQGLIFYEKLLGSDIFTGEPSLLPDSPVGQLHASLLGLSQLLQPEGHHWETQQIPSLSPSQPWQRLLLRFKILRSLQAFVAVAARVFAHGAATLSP
T1 sequence (looked up) 2: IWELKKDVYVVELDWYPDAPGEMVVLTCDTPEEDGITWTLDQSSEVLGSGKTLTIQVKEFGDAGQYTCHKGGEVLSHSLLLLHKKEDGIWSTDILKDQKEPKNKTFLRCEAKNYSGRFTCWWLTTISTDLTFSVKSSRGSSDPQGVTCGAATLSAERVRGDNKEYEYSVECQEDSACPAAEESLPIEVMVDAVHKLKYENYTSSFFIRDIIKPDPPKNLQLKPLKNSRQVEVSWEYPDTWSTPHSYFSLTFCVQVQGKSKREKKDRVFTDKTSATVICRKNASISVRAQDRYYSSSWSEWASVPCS
Description: (§1) 200 μL of 1% PBSA was added into each sample, and the mixture was centrifuged at 700×g for 5 min to discard the supernatant. According to experiment design, correspondingly diluted antibody (highest final concentration of 30 μg/mL, 3-fold dilution, 8 concentrations in total) and human IL-23 (IL-23-His-Biotin, Akesobio, 20161209) (final concentration of 2 μg/mL) were mixed at a ratio of 1:1, and a blank control was set. The mixture of antibody and human IL23 was incubated on ice for 30 min and then added to the cell precipitate at 100 μL/sample. The resulting mixture was well mixed and incubated on ice for 60 min. 200 μL of 1% PBSA was added, and the mixture was centrifuged at 700×g for 5 min to discard the supernatant, and then washed twice. FITC Steptavidin (Biolegend, Cat. No.: 405202) was diluted at a ratio of 1:500 and added to each tube at 100 μL. The mixture was well mixed and incubated on ice for 40 min in the absence of light. 200 μL of 1% PBSA was added, and the mixture was centrifuged at 700×g for 5 min to discard the supernatant, and then washed twice. 1% PBSA was added at 200 μL/tube, and the cells were resuspended and transferred to a flow cytometry tube for testing.

Human IL12 (His Tag) [2] = target: T2, Human IL12 (His Tag) (human, UniProt P29459 23-219; P29460 23-328); assay: FACS competition, IL-12-His 20 nM on 293T-IL-12Rβ1&IL-23R cells; antibody 10 µg/mL
T2 construct: Bought His-tagged heterodimer
T2 sequence (looked up) 1: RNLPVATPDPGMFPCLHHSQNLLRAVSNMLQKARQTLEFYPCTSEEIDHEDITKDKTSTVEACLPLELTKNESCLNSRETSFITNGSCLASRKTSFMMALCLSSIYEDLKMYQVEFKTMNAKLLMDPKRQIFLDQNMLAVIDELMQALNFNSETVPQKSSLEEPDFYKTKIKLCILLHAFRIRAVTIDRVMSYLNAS
T2 sequence (looked up) 2: T1 sequence (looked up) 2
Description: (§2) 200 μL of 1% PBSA was added into each sample, and the mixture was centrifuged at 700×g for 5 min to discard the supernatant. According to experiment design, correspondingly diluted antibody (highest final concentration of 30 μg/mL, 3-fold dilution, 8 concentrations in total) and human IL-12 (Sino Biological, Cat. No.: CT-050-H08H-20) (final concentration of 20 nM) were mixed at a ratio of 1:1, and a blank control was set. The mixture of antibody and human IL12 was incubated on ice for 30 min and then added to the cell precipitate at 100 μL/sample. The resulting mixture was well mixed and incubated on ice for 60 min 200 μL of 1% PBSA was added, and the mixture was centrifuged at 700×g for 5 min to discard the supernatant, and then washed twice. Alexa Fluor® 488 anti-His tag antibody (Biolegend, Cat. No.: 652509) was diluted at a ratio of 1:400 and added to each tube at 100 μL. The mixture was well mixed and incubated on ice for 40 min in the absence of light. 200 μL of 1% PBSA was added, and the mixture was centrifuged at 700×g for 5 min to discard the supernatant, and then washed twice. 1% PBSA was added at 200 μL/tube, and the cells were resuspended and transferred to a flow cytometry tube for testing.

Human IL12 (His Tag) [3] = target: T2, Human IL12 (His Tag); assay: FACS competition, IL-12-His 20 nM on 293T-IL-12Rβ1&IL-23R cells; antibody 30 µg/mL
Description: as §2

Human IL12 (His Tag) [4] = target: T2, Human IL12 (His Tag); assay: FACS competition, IL-12-His 20 nM on 293T-IL-12Rβ1&IL-23R cells; antibody 0.04 µg/mL
Description: as §2

Human IL12 (His Tag) [5] = target: T2, Human IL12 (His Tag); assay: FACS competition, IL-12-His 20 nM on 293T-IL-12Rβ1&IL-23R cells; antibody 0.12 µg/mL
Description: as §2

[6] = target: T1, human IL-23 (IL-23-His-Biotin); assay: FACS competition, IL-23-His-Biotin 2 µg/mL on 293T-IL-12Rβ1&IL-23R cells; antibody 0.01 µg/mL
Description: as §1

[7] = target: T1, human IL-23 (IL-23-His-Biotin); assay: FACS competition, IL-23-His-Biotin 2 µg/mL on 293T-IL-12Rβ1&IL-23R cells; antibody 0.12 µg/mL
Description: as §1

[8] = target: T1, human IL-23 (IL-23-His-Biotin); assay: FACS competition, IL-23-His-Biotin 2 µg/mL on 293T-IL-12Rβ1&IL-23R cells; antibody 1.11 µg/mL
Description: as §1

[9] = target: T1, human IL-23 (IL-23-His-Biotin); assay: FACS competition, IL-23-His-Biotin 2 µg/mL on 293T-IL-12Rβ1&IL-23R cells; antibody 3.33 µg/mL
Description: as §1

EC50 [1]: 1.16 mg/L | MFI (Human IL12 (His Tag) [2]): 31 MFI | MFI (Human IL12 (His Tag) [3]): 28.7 MFI | MFI (Human IL12 (His Tag) [4]): 150 MFI | MFI (Human IL12 (His Tag) [5]): 137 MFI | MFI [6]: 219 MFI | MFI [7]: 211 MFI | MFI [8]: 121 MFI | MFI [9]: 13.8 MFI
B1: ustekinumab (antibody, V domains shown)
VH: EVQLVQSGAEVKKPGESLKISCKGSGYSFTTYWLGWVRQMPGKGLDWIGIMSPVDSDIRYSPSFQGQVTMSVDKSITTAYLQWNSLKASDTAMYYCARRRPGQGYFDFWGQGTLVTVSS
VL: DIQMTQSPSSLSASVGDRVTITCRASQGISSWLAWYQQKPEKAPKSLIYAASSLQSGVPSRFSGSGSGTDFTLTISSLQPEDFATYYCQQYNIYPYTFGQGTKLEIK

EC50 [1]: 0.881 mg/L | MFI (Human IL12 (His Tag) [2]): 46.3 MFI | MFI (Human IL12 (His Tag) [3]): 34.9 MFI | MFI (Human IL12 (His Tag) [4]): 155 MFI | MFI (Human IL12 (His Tag) [5]): 146 MFI | MFI [6]: 218 MFI | MFI [7]: 203 MFI | MFI [8]: 95.6 MFI | MFI [9]: 23.6 MFI
B4: H5L14 (antibody, human IgG1, kappa, V domains shown)
VH: EVQLVQSGAEVKKPGESLKISCQSSGYSFTTYWIGWVRQMPGQGLEWIGIMSPVDSDIRYNPMFRGQVTMSVDKSSSTAYLQWSSLKASDTAMYYCARRRPGQGYFDFWGQGTMVTVSS
VL: EIVLTQSPATLSASPGERATISCRASQSVSSWLAWYQQKPGQAPRSLIYAASNLQSGIPARFSGSGSGTDFTLTISSLEPEDFAVYYCQQYNIYPFTFGQGTRLEIKR
notes: human IgG1 / kappa constant regions; also called humanized antibody H5L14

The remaining lines, values behind:

B2: H5L10 (antibody, human IgG1, kappa, V domains shown)
VH: B4 VH
VL: B4 VL with S30G, F96Y
notes: human IgG1 / kappa constant regions; also called humanized antibody H5L10
EC50 [1]: 0.7 mg/L | MFI (Human IL12 (His Tag) [2]): 34.1 MFI | MFI (Human IL12 (His Tag) [3]): 31.6 MFI | MFI (Human IL12 (His Tag) [4]): 154 MFI | MFI (Human IL12 (His Tag) [5]): 151 MFI | MFI [6]: 223 MFI | MFI [7]: 221 MFI | MFI [8]: 81.6 MFI | MFI [9]: 15.7 MFI

B3: H5L9 (antibody, human IgG1, kappa, V domains shown)
VH: B4 VH
VL: DIQMTQSPSSLSASVGDRVTITCKASQNVGSWLAWYQQKPGKAPKSLIYSASSRQSGVPSRFSGSGSGTDFTLTISSLQPEDFATYYCQQYDIYPFTFGQGTKLEIKR
notes: human IgG1 (P01857) / kappa (P01834) constant regions; also called humanized antibody H5L9
EC50 [1]: 4.25 mg/L | MFI (Human IL12 (His Tag) [2]): 134 MFI | MFI (Human IL12 (His Tag) [3]): 117 MFI | MFI (Human IL12 (His Tag) [4]): 158 MFI | MFI (Human IL12 (His Tag) [5]): 160 MFI | MFI [6]: 222 MFI | MFI [7]: 217 MFI | MFI [8]: 184 MFI | MFI [9]: 153 MFI

B5: H5L12 (antibody, human IgG1, kappa, V domains shown)
VH: B4 VH
VL: B4 VL with L54R, F96Y
notes: human IgG1 / kappa constant regions; also called humanized antibody H5L12
EC50 [1]: 0.775 mg/L | MFI (Human IL12 (His Tag) [2]): 32.4 MFI | MFI (Human IL12 (His Tag) [3]): 31.8 MFI | MFI (Human IL12 (His Tag) [4]): 149 MFI | MFI (Human IL12 (His Tag) [5]): 133 MFI | MFI [6]: 221 MFI | MFI [7]: 211 MFI | MFI [8]: 88.5 MFI | MFI [9]: 15.8 MFI

B6: H5L11 (antibody, human IgG1, kappa, V domains shown)
VH: B4 VH
VL: B4 VL with A50S, F96Y
notes: human IgG1 / kappa constant regions; also called humanized antibody H5L11
EC50 [1]: 0.864 mg/L | MFI (Human IL12 (His Tag) [2]): 33.9 MFI | MFI (Human IL12 (His Tag) [3]): 33 MFI | MFI (Human IL12 (His Tag) [4]): 151 MFI | MFI (Human IL12 (His Tag) [5]): 145 MFI | MFI [6]: 219 MFI | MFI [7]: 219 MFI | MFI [8]: 97.6 MFI | MFI [9]: 20.2 MFI
